Data published in the supplement of paper PMC10065799, “High-throughput profiling of sequence recognition by tyrosine kinases and SH2 domains using bacterial peptide display” (eLife, 2023).

Legend:
c-Src SH2 = test: SH2 binding enrichment of the phosphorylated peptide, bacterial display (enrichment ratio); higher = better substrate or ligand; peptides without Tyr show the background
Grb2 SH2 = Grb2 SH2 (UniProt P62993); test: as above
SHP2-C SH2 = test: as above
Fer (mouse) = test: phosphorylation enrichment, bacterial display (enrichment ratio); higher = better substrate or ligand; peptides without Tyr show the background
Fes = Fes (UniProt P07332); test: as above
Fes, sequence (P07332 whole entry, looked up): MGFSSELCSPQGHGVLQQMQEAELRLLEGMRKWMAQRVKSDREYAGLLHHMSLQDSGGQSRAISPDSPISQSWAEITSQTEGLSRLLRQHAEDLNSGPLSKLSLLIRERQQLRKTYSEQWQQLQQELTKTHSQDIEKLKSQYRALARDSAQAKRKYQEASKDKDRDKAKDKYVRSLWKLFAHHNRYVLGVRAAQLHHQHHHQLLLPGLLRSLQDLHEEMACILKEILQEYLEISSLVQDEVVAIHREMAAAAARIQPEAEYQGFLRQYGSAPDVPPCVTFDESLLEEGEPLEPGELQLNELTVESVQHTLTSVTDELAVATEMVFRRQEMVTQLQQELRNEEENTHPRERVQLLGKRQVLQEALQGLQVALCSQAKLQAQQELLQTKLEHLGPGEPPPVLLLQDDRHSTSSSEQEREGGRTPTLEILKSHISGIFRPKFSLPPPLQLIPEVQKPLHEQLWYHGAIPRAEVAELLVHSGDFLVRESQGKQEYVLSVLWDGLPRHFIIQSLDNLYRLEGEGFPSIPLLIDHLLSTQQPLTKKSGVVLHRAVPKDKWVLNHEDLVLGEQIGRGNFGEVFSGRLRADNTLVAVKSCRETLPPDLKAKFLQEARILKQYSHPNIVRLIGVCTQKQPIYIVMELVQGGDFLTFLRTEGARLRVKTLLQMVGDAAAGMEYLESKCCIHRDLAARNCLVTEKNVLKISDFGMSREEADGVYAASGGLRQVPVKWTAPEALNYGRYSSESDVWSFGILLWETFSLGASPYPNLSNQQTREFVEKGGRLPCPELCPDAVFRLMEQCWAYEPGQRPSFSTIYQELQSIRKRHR

FGFR3 = FGFR3 (UniProt P22607); test: as above
FGFR3, sequence (P22607 whole entry, looked up): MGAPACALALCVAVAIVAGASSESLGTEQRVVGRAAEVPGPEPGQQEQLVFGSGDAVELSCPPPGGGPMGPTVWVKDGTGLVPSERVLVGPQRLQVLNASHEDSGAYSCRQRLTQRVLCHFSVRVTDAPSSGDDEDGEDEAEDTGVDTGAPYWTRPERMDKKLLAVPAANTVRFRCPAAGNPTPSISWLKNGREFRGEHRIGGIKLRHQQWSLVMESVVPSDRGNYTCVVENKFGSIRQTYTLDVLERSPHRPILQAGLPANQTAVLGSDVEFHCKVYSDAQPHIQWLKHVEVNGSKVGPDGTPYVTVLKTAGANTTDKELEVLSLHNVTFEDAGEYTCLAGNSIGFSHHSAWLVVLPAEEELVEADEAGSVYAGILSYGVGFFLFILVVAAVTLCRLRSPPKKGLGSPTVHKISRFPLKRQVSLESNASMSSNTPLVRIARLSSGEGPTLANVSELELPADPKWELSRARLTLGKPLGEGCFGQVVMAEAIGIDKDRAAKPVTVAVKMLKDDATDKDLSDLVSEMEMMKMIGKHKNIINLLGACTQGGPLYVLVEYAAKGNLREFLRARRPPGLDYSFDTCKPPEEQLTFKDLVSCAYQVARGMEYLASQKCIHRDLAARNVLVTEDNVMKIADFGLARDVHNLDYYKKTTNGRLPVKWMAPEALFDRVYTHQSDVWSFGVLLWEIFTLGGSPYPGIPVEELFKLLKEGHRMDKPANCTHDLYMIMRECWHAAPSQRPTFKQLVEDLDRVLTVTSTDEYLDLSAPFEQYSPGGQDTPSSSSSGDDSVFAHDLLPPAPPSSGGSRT

Jak2 = Jak2 (UniProt O60674); test: as above
c-Abl (mouse) = test: as above
Fyn = Fyn (UniProt P06241); test: as above
Fyn, sequence (P06241 whole entry, looked up): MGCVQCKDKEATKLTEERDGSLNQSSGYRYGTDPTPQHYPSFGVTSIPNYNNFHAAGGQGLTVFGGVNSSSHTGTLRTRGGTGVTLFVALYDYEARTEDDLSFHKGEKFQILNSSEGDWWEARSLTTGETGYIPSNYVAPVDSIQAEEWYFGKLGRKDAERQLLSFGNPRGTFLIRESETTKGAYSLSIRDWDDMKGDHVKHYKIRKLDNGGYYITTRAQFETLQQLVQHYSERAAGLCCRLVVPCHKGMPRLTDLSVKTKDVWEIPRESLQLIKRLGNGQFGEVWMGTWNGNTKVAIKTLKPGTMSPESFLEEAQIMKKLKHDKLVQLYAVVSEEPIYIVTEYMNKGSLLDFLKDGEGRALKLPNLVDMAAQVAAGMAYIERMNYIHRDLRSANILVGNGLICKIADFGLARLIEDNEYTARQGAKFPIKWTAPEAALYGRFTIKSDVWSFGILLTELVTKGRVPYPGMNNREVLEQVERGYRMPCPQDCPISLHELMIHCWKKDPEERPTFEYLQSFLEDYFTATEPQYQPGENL

AncSZ = test: as above
EPHB2 = EPHB2 (UniProt P29323); test: as above
EPHB2, sequence (P29323 whole entry, looked up): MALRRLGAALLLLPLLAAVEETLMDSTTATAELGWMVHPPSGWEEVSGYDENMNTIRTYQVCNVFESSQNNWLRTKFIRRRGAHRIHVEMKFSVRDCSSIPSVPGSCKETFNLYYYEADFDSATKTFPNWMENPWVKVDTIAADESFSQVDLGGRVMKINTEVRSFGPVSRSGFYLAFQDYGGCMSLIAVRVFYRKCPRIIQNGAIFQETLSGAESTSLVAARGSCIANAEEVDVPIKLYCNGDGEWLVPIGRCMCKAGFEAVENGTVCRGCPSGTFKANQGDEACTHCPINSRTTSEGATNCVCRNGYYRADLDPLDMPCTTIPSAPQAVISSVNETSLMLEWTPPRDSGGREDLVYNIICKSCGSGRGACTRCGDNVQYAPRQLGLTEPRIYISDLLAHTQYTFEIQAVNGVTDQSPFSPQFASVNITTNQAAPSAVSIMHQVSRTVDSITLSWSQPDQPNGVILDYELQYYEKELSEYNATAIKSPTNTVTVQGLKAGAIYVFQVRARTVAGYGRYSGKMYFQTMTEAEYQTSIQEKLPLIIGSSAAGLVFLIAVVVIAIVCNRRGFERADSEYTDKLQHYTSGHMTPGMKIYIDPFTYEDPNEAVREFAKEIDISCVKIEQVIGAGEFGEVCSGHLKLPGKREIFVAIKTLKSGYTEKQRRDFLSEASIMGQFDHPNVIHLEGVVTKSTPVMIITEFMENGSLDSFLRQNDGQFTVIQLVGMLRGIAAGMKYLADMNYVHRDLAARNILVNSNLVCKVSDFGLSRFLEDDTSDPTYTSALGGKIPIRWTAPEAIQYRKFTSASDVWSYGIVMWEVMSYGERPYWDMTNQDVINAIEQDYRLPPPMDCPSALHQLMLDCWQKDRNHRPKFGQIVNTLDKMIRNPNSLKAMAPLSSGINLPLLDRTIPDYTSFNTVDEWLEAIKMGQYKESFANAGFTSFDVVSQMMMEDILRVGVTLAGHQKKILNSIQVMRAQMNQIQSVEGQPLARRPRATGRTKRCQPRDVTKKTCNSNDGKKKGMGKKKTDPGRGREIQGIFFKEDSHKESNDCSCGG

EPHB1 = EPHB1 (UniProt P54762); test: as above
MERTK = MERTK (UniProt Q12866); test: as above
MERTK, sequence (Q12866 whole entry, looked up): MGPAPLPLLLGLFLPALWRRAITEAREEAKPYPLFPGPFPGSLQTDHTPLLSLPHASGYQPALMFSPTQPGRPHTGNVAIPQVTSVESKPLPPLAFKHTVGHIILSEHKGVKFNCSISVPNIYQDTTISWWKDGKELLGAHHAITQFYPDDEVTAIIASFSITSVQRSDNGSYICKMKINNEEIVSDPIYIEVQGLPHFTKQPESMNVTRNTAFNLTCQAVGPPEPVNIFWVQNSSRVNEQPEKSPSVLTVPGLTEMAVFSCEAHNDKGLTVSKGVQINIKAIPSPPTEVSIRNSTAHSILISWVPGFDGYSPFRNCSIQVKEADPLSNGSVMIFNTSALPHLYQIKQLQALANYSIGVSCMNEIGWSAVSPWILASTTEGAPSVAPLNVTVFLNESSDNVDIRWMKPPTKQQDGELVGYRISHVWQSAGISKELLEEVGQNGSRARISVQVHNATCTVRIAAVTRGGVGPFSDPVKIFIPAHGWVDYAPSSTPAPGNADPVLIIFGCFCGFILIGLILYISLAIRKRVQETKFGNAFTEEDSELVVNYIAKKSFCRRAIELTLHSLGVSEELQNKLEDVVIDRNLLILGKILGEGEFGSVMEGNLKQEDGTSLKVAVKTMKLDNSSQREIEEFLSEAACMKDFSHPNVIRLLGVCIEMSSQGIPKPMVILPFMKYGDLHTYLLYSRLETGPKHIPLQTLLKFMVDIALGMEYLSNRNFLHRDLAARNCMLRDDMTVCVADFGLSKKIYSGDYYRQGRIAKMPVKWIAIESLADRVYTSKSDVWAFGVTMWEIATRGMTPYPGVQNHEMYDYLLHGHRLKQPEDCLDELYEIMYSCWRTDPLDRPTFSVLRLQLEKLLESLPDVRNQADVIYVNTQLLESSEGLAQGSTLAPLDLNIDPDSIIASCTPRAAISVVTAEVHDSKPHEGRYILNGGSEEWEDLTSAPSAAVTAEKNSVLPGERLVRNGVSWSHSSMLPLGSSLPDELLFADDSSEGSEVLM

FGFR1 = FGFR1 (UniProt P11362); test: as above
FGFR1, sequence (P11362 whole entry, looked up): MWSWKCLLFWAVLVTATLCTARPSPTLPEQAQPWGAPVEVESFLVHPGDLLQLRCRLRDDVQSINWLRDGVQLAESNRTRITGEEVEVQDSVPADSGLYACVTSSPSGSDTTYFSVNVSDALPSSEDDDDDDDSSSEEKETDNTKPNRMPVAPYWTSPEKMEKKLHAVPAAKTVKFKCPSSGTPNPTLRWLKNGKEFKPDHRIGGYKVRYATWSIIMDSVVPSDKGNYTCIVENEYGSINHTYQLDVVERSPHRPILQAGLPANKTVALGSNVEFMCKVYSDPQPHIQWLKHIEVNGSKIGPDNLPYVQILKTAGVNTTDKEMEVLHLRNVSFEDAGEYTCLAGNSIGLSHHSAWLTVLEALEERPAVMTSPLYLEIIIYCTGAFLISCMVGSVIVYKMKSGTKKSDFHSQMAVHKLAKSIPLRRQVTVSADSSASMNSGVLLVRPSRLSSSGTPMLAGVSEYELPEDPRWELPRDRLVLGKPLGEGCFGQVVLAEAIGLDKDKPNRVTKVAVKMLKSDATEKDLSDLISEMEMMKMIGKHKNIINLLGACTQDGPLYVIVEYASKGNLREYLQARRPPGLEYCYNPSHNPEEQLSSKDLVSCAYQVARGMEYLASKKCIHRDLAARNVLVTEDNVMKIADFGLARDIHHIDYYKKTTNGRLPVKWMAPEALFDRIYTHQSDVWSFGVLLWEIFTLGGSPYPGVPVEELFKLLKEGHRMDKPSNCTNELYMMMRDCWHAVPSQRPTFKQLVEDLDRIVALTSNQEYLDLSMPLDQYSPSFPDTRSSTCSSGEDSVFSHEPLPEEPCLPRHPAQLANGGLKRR

c-Src = test: as above
Hck = Hck (UniProt P08631); test: as above
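For SH2 binding enrichment of the phosphorylated peptide, bacterial display in this document: peptide library displayed on the E. coli surface as eCPX fusions, selected cells deep-sequenced, score is each peptide's frequency after selection divided by its frequency in the input.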
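For phosphorylation enrichment, bacterial display in this document: 11-residue human phosphosite peptides and single-mutation variants displayed on the E. coli surface, counted by deep sequencing, each peptide's frequency after selection divided by its frequency in the unselected input library; frequency after pTyr selection over input frequency; kinase dosed for 20-30% of maximal phosphorylation in three min.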

Sequence TKVVHYWKWIK [KLK2_Y249_R250W] has an SH2 binding enrichment (c-Src SH2) of 1.12, an SH2 binding enrichment (Grb2 SH2) of 1.41 and an SH2 binding enrichment (SHP2-C SH2) of 1.45. For the same sequence, the phosphorylation enrichment (Fer (mouse)) was 0.378, the phosphorylation enrichment (Fes) was 0.975 and the phosphorylation enrichment (FGFR3) was 0.58. It also gave a phosphorylation enrichment (Jak2) of 0.802, a phosphorylation enrichment (c-Abl (mouse)) of 0.714 and a phosphorylation enrichment (Fyn) of 0.346. The phosphorylation enrichment (AncSZ) was 0.812, the phosphorylation enrichment (EPHB2) was 0.364 and the phosphorylation enrichment (EPHB1) was 0.494. The phosphorylation enrichment (MERTK) was 0.51, the phosphorylation enrichment (FGFR1) was 0.489 and the phosphorylation enrichment (c-Src) was 0.474. For the same sequence, the phosphorylation enrichment (Hck) was 0.501.
Sequence TLARLYHRDST [LRIG1_Y1029_P1031R] has an SH2 binding enrichment (c-Src SH2) of 0.552, an SH2 binding enrichment (Grb2 SH2) of 0.963 and an SH2 binding enrichment (SHP2-C SH2) of 0.608. It also gave a phosphorylation enrichment (Fer (mouse)) of 0.71, a phosphorylation enrichment (Fes) of 0.844 and a phosphorylation enrichment (FGFR3) of 0.729. For the same sequence, the phosphorylation enrichment (Jak2) was 0.61, the phosphorylation enrichment (c-Abl (mouse)) was 0.761 and the phosphorylation enrichment (Fyn) was 0.565. For the same sequence, the phosphorylation enrichment (AncSZ) was 0.761, the phosphorylation enrichment (EPHB2) was 0.539 and the phosphorylation enrichment (EPHB1) was 0.501. For the same sequence, the phosphorylation enrichment (MERTK) was 0.522, the phosphorylation enrichment (FGFR1) was 0.563 and the phosphorylation enrichment (c-Src) was 0.449. For the same sequence, the phosphorylation enrichment (Hck) was 0.409.
With TLEKFYFAFPG [SLC1A1_Y51] the SH2 binding enrichment (c-Src SH2) was 0.589, the SH2 binding enrichment (Grb2 SH2) was 1 and the SH2 binding enrichment (SHP2-C SH2) was 0.92. It also gave a phosphorylation enrichment (Fer (mouse)) of 0.496, a phosphorylation enrichment (Fes) of 1.18 and a phosphorylation enrichment (FGFR3) of 6.62. For the same sequence, the phosphorylation enrichment (Jak2) was 3.54, the phosphorylation enrichment (c-Abl (mouse)) was 7.49 and the phosphorylation enrichment (Fyn) was 1.9. For the same sequence, the phosphorylation enrichment (AncSZ) was 1.53, the phosphorylation enrichment (EPHB2) was 2.85 and the phosphorylation enrichment (EPHB1) was 1.98. The phosphorylation enrichment (MERTK) was 7.49, the phosphorylation enrichment (FGFR1) was 8.55 and the phosphorylation enrichment (c-Src) was 3.75. The phosphorylation enrichment (Hck) was 1.62.
In the case of TLLERYGMTKI [ACSF3_Y355_E359K], the SH2 binding enrichment (c-Src SH2) is reported as 0.433, the SH2 binding enrichment (Grb2 SH2) is reported as 0.884 and the SH2 binding enrichment (SHP2-C SH2) is reported as 0.636. The phosphorylation enrichment (Fer (mouse)) was 0.374, the phosphorylation enrichment (Fes) was 0.734 and the phosphorylation enrichment (FGFR3) was 0.667. For the same sequence, the phosphorylation enrichment (Jak2) was 0.625, the phosphorylation enrichment (c-Abl (mouse)) was 0.728 and the phosphorylation enrichment (Fyn) was 0.484. It also gave a phosphorylation enrichment (AncSZ) of 0.751, a phosphorylation enrichment (EPHB2) of 0.594 and a phosphorylation enrichment (EPHB1) of 0.531. For the same sequence, the phosphorylation enrichment (MERTK) was 0.407, the phosphorylation enrichment (FGFR1) was 0.513 and the phosphorylation enrichment (c-Src) was 0.43. The phosphorylation enrichment (Hck) was 0.478.
TLMNAYSSCSH [KIF11_Y231_R234C] was tested, and the SH2 binding enrichment (c-Src SH2) was 1.24, the SH2 binding enrichment (Grb2 SH2) was 0.808 and the SH2 binding enrichment (SHP2-C SH2) was 0.658. The phosphorylation enrichment (Fer (mouse)) was 0.599, the phosphorylation enrichment (Fes) was 0.803 and the phosphorylation enrichment (FGFR3) was 0.566. The phosphorylation enrichment (Jak2) was 0.642, the phosphorylation enrichment (c-Abl (mouse)) was 0.597 and the phosphorylation enrichment (Fyn) was 0.462. The phosphorylation enrichment (AncSZ) was 0.702, the phosphorylation enrichment (EPHB2) was 0.566 and the phosphorylation enrichment (EPHB1) was 0.465. The phosphorylation enrichment (MERTK) was 0.496, the phosphorylation enrichment (FGFR1) was 0.436 and the phosphorylation enrichment (c-Src) was 0.45. It also gave a phosphorylation enrichment (Hck) of 0.557.
Work on TLPAFYMENFS [GLB1_Y552_G554E] yielded an SH2 binding enrichment (c-Src SH2) of 0.484, an SH2 binding enrichment (Grb2 SH2) of 0.853 and an SH2 binding enrichment (SHP2-C SH2) of 0.638. For the same sequence, the phosphorylation enrichment (Fer (mouse)) was 0.64, the phosphorylation enrichment (Fes) was 1.62 and the phosphorylation enrichment (FGFR3) was 0.855. The phosphorylation enrichment (Jak2) was 1.37, the phosphorylation enrichment (c-Abl (mouse)) was 1.2 and the phosphorylation enrichment (Fyn) was 0.484. The phosphorylation enrichment (AncSZ) was 1.19, the phosphorylation enrichment (EPHB2) was 0.789 and the phosphorylation enrichment (EPHB1) was 1.25. It also gave a phosphorylation enrichment (MERTK) of 0.947, a phosphorylation enrichment (FGFR1) of 0.439 and a phosphorylation enrichment (c-Src) of 0.735. For the same sequence, the phosphorylation enrichment (Hck) was 0.523.
Sequence TLQIMYGCDVG [HLA-A_Y123_I119L] has an SH2 binding enrichment (c-Src SH2) of 0.546, an SH2 binding enrichment (Grb2 SH2) of 0.851 and an SH2 binding enrichment (SHP2-C SH2) of 0.577. For the same sequence, the phosphorylation enrichment (Fer (mouse)) was 0.654, the phosphorylation enrichment (Fes) was 1.34 and the phosphorylation enrichment (FGFR3) was 0.887. For the same sequence, the phosphorylation enrichment (Jak2) was 1.4, the phosphorylation enrichment (c-Abl (mouse)) was 0.997 and the phosphorylation enrichment (Fyn) was 0.528. It also gave a phosphorylation enrichment (AncSZ) of 1.23, a phosphorylation enrichment (EPHB2) of 0.606 and a phosphorylation enrichment (EPHB1) of 0.594. For the same sequence, the phosphorylation enrichment (MERTK) was 0.459, the phosphorylation enrichment (FGFR1) was 0.619 and the phosphorylation enrichment (c-Src) was 0.673. The phosphorylation enrichment (Hck) was 0.625.
For TLQRMYGCDVG [HLA-B_Y123_S121R], the SH2 binding enrichment (c-Src SH2) was 0.493, the SH2 binding enrichment (Grb2 SH2) was 0.851 and the SH2 binding enrichment (SHP2-C SH2) was 0.454. For the same sequence, the phosphorylation enrichment (Fer (mouse)) was 0.542, the phosphorylation enrichment (Fes) was 1.14 and the phosphorylation enrichment (FGFR3) was 0.771. It also gave a phosphorylation enrichment (Jak2) of 1, a phosphorylation enrichment (c-Abl (mouse)) of 0.816 and a phosphorylation enrichment (Fyn) of 0.568. It also gave a phosphorylation enrichment (AncSZ) of 0.857, a phosphorylation enrichment (EPHB2) of 0.665 and a phosphorylation enrichment (EPHB1) of 0.535. The phosphorylation enrichment (MERTK) was 0.545, the phosphorylation enrichment (FGFR1) was 0.5 and the phosphorylation enrichment (c-Src) was 0.554. It also gave a phosphorylation enrichment (Hck) of 0.501.
